Data as given in the supplement of paper PMC10201428.
± gives the standard deviation of the averaged measurements.

Tested on: VchCAST RNA-guided transposition machinery (E. coli BL21(DE3) host, lacZ target)
Experiment: relative integration efficiency (T-RL orientation) vs wild-type transposon end (log2 (normalized fold change)); transposon end mutated: left end; higher = more efficient transposition
Protocol: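 Pooled, barcoded VchCAST (Tn6677) mini-transposon donor libraries; each variable transposon-end sequence sits in a fixed pDonor mini-transposon context (10-bp barcode and cargo not included). Left- or right-end libraries were co-transformed with pEffector (TniQ-Cascade, TnsABC, lacZ crRNA, T7, 0.1 mM IPTG) into E. coli BL21(DE3) and grown 18 h at 37 C. T-LR and T-RL junction amplicons were sequenced; output/input barcode fold change was normalised to the mean of four wild-type barcodes and log2-transformed. Two biological replicates; zero-count/undetected variants carry floor values (-10 / -15), censored here. Barcode uncoupling by PCR recombination adds noise.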

Sequence | relative integration efficiency (log2)
AATGTTGTCAACCATAAAGTGATATTTAATAATTATTTATAATCAGCAACTTAACCACAAAACAACCATATATTGATATCTCACAAAACAACCATAAGTTGATATTTTTGTGAATCGAGTATTTCAGCAAAACTACTGCAGTAAGAAAGTTA | -8.1 ± 1.2
AATGTTGTTCAACCATAAAGTGATATTTAATAATTATTTATAATCAGCAACTTAACCACAAAACAACCATATATTGATATCTCACAAAACAACCATAAGTTGATATTTTTGTGAATCGAGTATTTCAGCAAAACTACTGCAGTAAGAAAGTT | -7.77 ± 0.46
AATGTTGTTGATGACCAACGCCTGGTCGCGGGGATAATTATTTATAATCAGCAACTTAACCACAAAAACCAACGCGCGGTCGCGAGAACAAAAACCAACGCCCTGTCGCGGGCTGTGAATCGAGTATTTCAGCAAAACTACTGCAGTAAGAA | < -10
AATGTTGTTGATGACCAACGCCTGGTCGCGGGGATAATTATTTATAATCAGCAACTTAACCACAAAACAACCATATATTGATATCTCACAAAACAACCATAAGTTGATATTTTTGTGAATCGAGTATTTCAGCAAAACTACTGCAGTAAGAA | -8.86 ± 0.67
AATGTTGTTGATGCAAAACGCCCTGTCGCGGGCCGCCGGCGGGCGCCGACTACCAGGCCAACACCCCACCAACGCGCGGTCGCGAGACACCCCACCAACGCCTGGTCGCGGGGGTGTCCGATCTGATTTCAGCAAAACTACTGCAGTAAGAA | < -10
AATGTTGTTGATGCAACCATAAAATGATAATTAATAATTATTTATAATCAGCAACTTAACCACAAAATAATTATCATTTTATGGTTGACAAAACAACCATAAAATGATAATTATGTGAATCGAGTATTTCAGCAAAACTACTGCAGTAAGAA | -5.2 ± 1.6
AATGTTGTTGATGCAACCATAAAGGTCGCGGGCCGCCGGCGGGCGCCGACTACCAGGCCAACACCCCACCAACGCGCGGTCGCGAGACACCCCACCAACGCCTGGTCGCGGGGGTGTCCGATCTGATTTCAGCAAAACTACTGCAGTAAGAA | < -10
AATGTTGTTGATGCAACCATAAAGTGAATAAATATAATTATTTATAATCAGCAACTTAACCACAAAACAACCATATATTGAATAGAGACAAAACAACCATAAGTTGAATAAAATGTGAATCGAGTATTTCAGCAAAACTACTGCAGTAAGAA | -4.14 ± 1.6
AATGTTGTTGATGCAACCATAAAGTGAGCGGGCCGCCGGCGGGCGCCGACTACCAGGCCAACACCCCACCAACGCGCGGTCGCGAGACACCCCACCAACGCCTGGTCGCGGGGGTGTCCGATCTGATTTCAGCAAAACTACTGCAGTAAGAA | -8.13 ± 0.57
AATGTTGTTGATGCAACCATAAAGTGATATAATTATTTATAATCAGCAACTTAACCACAAAACAACCATATATTGATATCTCACAAAACAACCATAAGTTGATATTTTTGTGAATCGAGTATTTCAGCAAAACTACTGCAGTAAGAAAGTTA | -6.82 ± 0.68
AATGTTGTTGATGCAACCATAAAGTGATATTATAATTATTTATAATCAGCAACTTAACCACAAAACAACCATATATTGATATCTCACAAAACAACCATAAGTTGATATTTTTGTGAATCGAGTATTTCAGCAAAACTACTGCAGTAAGAAAG | -5.22 ± 1.1
AATGTTGTTGATGCAACCATAAAGTGATATTTAAGAATTATGTCGTTCTAAACAAGAGATATTAGAACAACCATATATTGATATCTCACAAAACAACCATAAGTTGATATTTTTGTGAATCGAGTATTTCAGCAAAACTACTGCAGTAAGAA | -4.29 ± 1.2
AATGTTGTTGATGCAACCATAAAGTGATATTTAATAACTTCGTATAGCATACATTATACGAAGTTATCAACCATATATTGATATCTCACAAAACAACCATAAGTTGATATTTTTGTGAATCGAGTATTTCAGCAAAACTACTGCAGTAAGAA | -4.52 ± 0.95
AATGTTGTTGATGCAACCATAAAGTGATATTTAATAACTTCGTATAGTATACCTTATACGAAGTTATCAACCATATATTGATATCTCACAAAACAACCATAAGTTGATATTTTTGTGAATCGAGTATTTCAGCAAAACTACTGCAGTAAGAA | -3.19 ± 0.87
AATGTTGTTGATGCAACCATAAAGTGATATTTAATAATTACAACCATAAAGTGATATTTAACTTAACCAACCATATATTGATATCTCACAAAACAACCATAAGTTGATATTTTTGTGAATCGAGTATTTCAGCAAAACTACTGCAGTAAGAA | -7.98 ± 1.5
AATGTTGTTGATGCAACCATAAAGTGATATTTAATAATTATCAACCATATATTGATATCTCACAAAACAACCATAAGTTGATATTTTTGTGAATCGAGTATTTCAGCAAAACTACTGCAGTAAGAAAGTTACTTCGTGGTATGGGAGGATCA | -7.99 ± 0.76
AATGTTGTTGATGCAACCATAAAGTGATATTTAATAATTATGGCGCCGACTACCAGGCCAACACCCCACCAACGCGCGGTCGCGAGACACCCCACCAACGCCTGGTCGCGGGGGTGTCCGATCTGATTTCAGCAAAACTACTGCAGTAAGAA | -6.86 ± 1.3
AATGTTGTTGATGCAACCATAAAGTGATATTTAATAATTATTCAACCATAAAGTGATATTTAACTTACAACCATATATTGATATCTCACAAAACAACCATAAGTTGATATTTTTGTGAATCGAGTATTTCAGCAAAACTACTGCAGTAAGAA | -3.81 ± 1.1

Sequence | relative integration efficiency (log2)
AATGTTGTTGATGCAACCATAAAGTGATATTTAATAATTATTTAGCCGACTACCAGGCCAACACCCCACCAACGCGCGGTCGCGAGACACCCCACCAACGCCTGGTCGCGGGGGTGTCCGATCTGATTTCAGCAAAACTACTGCAGTAAGAA | -7.02 ± 1.2
AATGTTGTTGATGCAACCATAAAGTGATATTTAATAATTATTTATAACAACCATAAAGTGATATTTACAACCATATATTGATATCTCACAAAACAACCATAAGTTGATATTTTTGTGAATCGAGTATTTCAGCAAAACTACTGCAGTAAGAA | -6.17 ± 1.2
AATGTTGTTGATGCAACCATAAAGTGATATTTAATAATTATTTATAACAACCATATATTGATATCTCACAAAACAACCATAAGTTGATATTTTTCAGCAACTTAACCACAAAATGTGAATCGAGTATTTCAGCAAAACTACTGCAGTAAGAA | -5.63 ± 0.81
AATGTTGTTGATGCAACCATAAAGTGATATTTAATAATTATTTATAACAACCATATATTGATATCTCACAAAACAACCATAAGTTGATATTTTTGTGAATCGAGTATTTCAGCAAAACTACTGCAGTAAGAAAGTTACTTCGTGGTATGGGA | -6.45 ± 1
AATGTTGTTGATGCAACCATAAAGTGATATTTAATAATTATTTATAATCACAACCATATATTGATATCTCGCAACTTAACCACAAAAACAAAACAACCATAAGTTGATATTTTTGTGAATCGAGTATTTCAGCAAAACTACTGCAGTAAGAA | -6.71 ± 0.83
AATGTTGTTGATGCAACCATAAAGTGATATTTAATAATTATTTATAATCAGACCAGGCCAACACCCCACCAACGCGCGGTCGCGAGACACCCCACCAACGCCTGGTCGCGGGGGTGTCCGATCTGATTTCAGCAAAACTACTGCAGTAAGAA | -6.56 ± 1.8
AATGTTGTTGATGCAACCATAAAGTGATATTTAATAATTATTTATAATCAGCAAAGGCCAACACCCCACCAACGCGCGGTCGCGAGACACCCCACCAACGCCTGGTCGCGGGGGTGTCCGATCTGATTTCAGCAAAACTACTGCAGTAAGAA | -6.56 ± 1.3
AATGTTGTTGATGCAACCATAAAGTGATATTTAATAATTATTTATAATCAGCAACAACCATATATTGATATCTCACAAAACAACCATAAGTTGATATTTTTGTGAATCGAGTATTTCAGCAAAACTACTGCAGTAAGAAAGTTACTTCGTGG | -7.72 ± 1.1
AATGTTGTTGATGCAACCATAAAGTGATATTTAATAATTATTTATAATCAGCAACAACCATATATTGATATCTCCTTAACCACAAAAACAAAACAACCATAAGTTGATATTTTTGTGAATCGAGTATTTCAGCAAAACTACTGCAGTAAGAA | -6.46 ± 1.4
AATGTTGTTGATGCAACCATAAAGTGATATTTAATAATTATTTATAATCAGCAACCAACCATATATTGATATCTCACAAAACAACCATAAGTTGATATTTTTGTGAATCGAGTATTTCAGCAAAACTACTGCAGTAAGAAAGTTACTTCGTG | -6.44 ± 0.52
AATGTTGTTGATGCAACCATAAAGTGATATTTAATAATTATTTATAATCAGCAACCAACCATATATTGATATCTCTTAACCACAAAAACAAAACAACCATAAGTTGATATTTTTGTGAATCGAGTATTTCAGCAAAACTACTGCAGTAAGAA | -5.89 ± 1.6
AATGTTGTTGATGCAACCATAAAGTGATATTTAATAATTATTTATAATCAGCAACCATATATTGATATCTCACAAAACAACCATAAGTTGATATTTTTGTGAATCGAGTATTTCAGCAAAACTACTGCAGTAAGAAAGTTACTTCGTGGTAT | -8.36 ± 0.35
AATGTTGTTGATGCAACCATAAAGTGATATTTAATAATTATTTATAATCAGCAACCATATATTGATATCTCCAACTTAACCACAAAAACAAAACAACCATAAGTTGATATTTTTGTGAATCGAGTATTTCAGCAAAACTACTGCAGTAAGAA | -6.03 ± 0.52
AATGTTGTTGATGCAACCATAAAGTGATATTTAATAATTATTTATAATCAGCAACGGCCAACACCCCACCAACGCGCGGTCGCGAGACACCCCACCAACGCCTGGTCGCGGGGGTGTCCGATCTGATTTCAGCAAAACTACTGCAGTAAGAA | -6.79 ± 1.6
AATGTTGTTGATGCAACCATAAAGTGATATTTAATAATTATTTATAATCAGCAACTCAACCATATATTGATATCTCTAACCACAAAAACAAAACAACCATAAGTTGATATTTTTGTGAATCGAGTATTTCAGCAAAACTACTGCAGTAAGAA | -4.84 ± 0.92
AATGTTGTTGATGCAACCATAAAGTGATATTTAATAATTATTTATAATCAGCAACTTAACCAACCATATATTGATATCTCACAAAACAACCATAAGTTGATATTTTTGTGAATCGAGTATTTCAGCAAAACTACTGCAGTAAGAAAGTTACT | -5.17 ± 1.5
AATGTTGTTGATGCAACCATAAAGTGATATTTAATAATTATTTATAATCAGCAACTTAACCAACCATATATTGATATCTCCACAAAAACAAAACAACCATAAGTTGATATTTTTGTGAATCGAGTATTTCAGCAAAACTACTGCAGTAAGAA | -2.66 ± 0.88
